Test results taken from article doi:10.1101/313791 (bioRxiv, 2018).

B1: SCR-mCherry (SCRpro:SCR-mCherry) (natural protein, Arabidopsis thaliana, UniProt Q9M384 1-653, looked up)
chain: MAESGDFNGGQPPPHSPLRTTSSGSSSSNNRGPPPPPPPPLVMVRKRLASEMSSNPDYNNSSRPPRRVSHLLDSNYNTVTPQQPPSLTAAATVSSQPNPPLSVCGFSGLPVFPSDRGGRNVMMSVQPMDQDSSSSSASPTVWVDAIIRDLIHSSTSVSIPQLIQNVRDIIFPCNPNLGALLEYRLRSLMLLDPSSSSDPSPQTFEPLYQISNNPSPPQQQQQHQQQQQQHKPPPPPIQQQERENSSTDAPPQPETVTATVPAVQTNTAEALRERKEEIKRQKQDEEGLHLLTLLLQCAEAVSADNLEEANKLLLEISQLSTPYGTSAQRVAAYFSEAMSARLLNSCLGIYAALPSRWMPQTHSLKMVSAFQVFNGISPLVKFSHFTANQAIQEAFEKEDSVHIIDLDIMQGLQWPGLFHILASRPGGPPHVRLTGLGTSMEALQATGKRLSDFADKLGLPFEFCPLAEKVGNLDTERLNVRKREAVAVHWLQHSLYDVTGSDAHTLWLLQRLAPKVVTVVEQDLSHAGSFLGRFVEAIHYYSALFDSLGASYGEESEERHVVEQQLLSKEIRNVLAVGGPSRSGEVKFESWREKMQQCGFKGISLAGNAATQATLLLGMFPSDGYTLVDDNGTLKLGWKDLSLLTASAWTPRS
B2: HDA19-EGFP (HDA19pro:HDA19-EGFP) (enzyme, Arabidopsis thaliana, UniProt O22446 1-501, looked up)
chain: MDTGGNSLASGPDGVKRKVCYFYDPEVGNYYYGQGHPMKPHRIRMTHALLAHYGLLQHMQVLKPFPARDRDLCRFHADDYVSFLRSITPETQQDQIRQLKRFNVGEDCPVFDGLYSFCQTYAGGSVGGSVKLNHGLCDIAINWAGGLHHAKKCEASGFCYVNDIVLAILELLKQHERVLYVDIDIHHGDGVEEAFYATDRVMTVSFHKFGDYFPGTGHIQDIGYGSGKYYSLNVPLDDGIDDESYHLLFKPIMGKVMEIFRPGAVVLQCGADSLSGDRLGCFNLSIKGHAECVKFMRSFNVPLLLLGGGGYTIRNVARCWCYETGVALGVEVEDKMPEHEYYEYFGPDYTLHVAPSNMENKNSRQMLEEIRNDLLHNLSKLQHAPSVPFQERPPDTETPEVDEDQEDGDKRWDPDSDMDVDDDRKPIPSRVKREAVEPDTKDKDGLKGIMERGKGCEVEVDESGSTKVTGVNPVGVEEASVKMEEEGTNKGGAEQAFPPKT

How the values were obtained:
[1] = target: B2; test: fluorescence correlation spectroscopy
[2] = target: the molecule itself; test: fluorescence correlation spectroscopy

| Binder | percent of the complex in a 1:1 ratio [1] [%] | stoichiometry N [1] | stoichiometry N [2] |
| --- | --- | --- | --- |
| B1 | 98.8 | 1 ratio (1:1) | – |
| B2 | – | – | 2 |
